Common to all, as to test: Spectrophotometric hydrolysis of pNA substrates by immobilized ICE (release of pNA at 405 nM)
Holding throughout (assay type): biochemical, Human
What all share (settings): other: pNA substrate 0.01 to 1.5 mM, 25° C., pH 7

Substrate in series [1]: CC(=O)N[C@@H](Cc1ccc(O)cc1)C(=O)N[C@H](C(=O)N[C@@H](C)C(=O)N[C@@H](CC(=O)O)C(=O)Nc1ccc([N+](=O)[O-])cc1)C(C)C
On the procedure: (§1) Other procedures for purification and assaying ICE are disclosed in Black et al., FEBS Letters, 247, 386-390 (1989), and Thornberry et al., Nature, 356, 768-774 (1992). Cell Culture And Lysates.
(§2) Human monocyte cell line, THP-1 (ATCC-TIB 202) was grown in RPMI media 1640 (Gibco BRL Gaithersburg, Md. 20877) with 10% fetal bovine serum, harvested by centrifugation, washed twice in Dulbecco's PBS […] without Ca^++, and resuspended in 10 mM Tris-HCl pH 8 buffer containing 5 mM DTT (dithiothreitol), 1 mM EDTA (ethylene diamine tetraacetic acid), 1 mM PMSF (phenylmethyl sulfonylfluoride), 1 μg/ml pepstatin, and 1 μg/ml leupeptin at 1-3×10^8 cells per ml. Cells were frozen at -70° C. until use and then lysed by thawing. Lysates were cleared by centrifugation at 20,000× g for 1 hour followed by 120,000×g for 1 hour.
(§3) ICE activity was purified from THP-1 cell lysates by three chromatographic steps: (A) Thp-1 cell lysate (1.5L) was desalted by G25 column chromatography (Pharmacia LKB Biotechnology) (B) The protein fraction was then subjected to ion-exchange chromatography on Q-Sepharose Fast Flow (Pharmacia LKB Biotechnology) in buffer A (20 mM Tris pH 7.8 containing 5 mM EDTA, 1 mM PMSF, 1 μg/ml pepstatin, and 1 μg/ml leupeptin). ICE activity was eluted with a gradient of NaCl in buffer A. (C) The active fractions from B were desalted, concentrated and subjected to MonoQ (trademark) (Pharmacia LKB Biotechnology) column chromatography. ICE activity was then eluted in a NaCl gradient. Active ICE fractions from C were pooled and used to bind immunoaffinity beads containing covalently linked antibodies raised against the first […] N-terminal residues of ICE (NH2 -Asp-Pro-Ala-Met-Pro-Thr-Ser-Ser-Val-Lys-Leu-Cys(SEQ ID NO:2)-CONH2).
(§4) Immobilization of ICE to immunoaffinity beads was done following standard protocols. Briefly, IgG fractions were covalently linked to protein A beads as described by the manufacturers (Antibody Orientation Kit Protein A Agarose supplied by Affinica (trademark) (Product manufactured by Schleicher and Schuell)). Protein A beads were pelleted by centrifugation and washed with 5 times their volume with Affinica (trademark) supplied "binding buffer". IgG, appropriately diluted in "binding buffer," was then bound to the beads. The beads were then washed and the bound IgG was covalently linked with dimethyl suberimidate. After the reaction was stopped with the "quenching buffer" supplied by Affinica (trademark), the immunoaffinity beads were washed and stored in PBS buffer containing 0.02% NAN3. […]
(§5) The enzymatic reaction was monitored spectrophotometrically at […]. The increase in absorbance at this wave length resulted from the release of pNA chromophore after hydrolysis by ICE of the peptidic-pNA substrate. […]

Substrate in series [2]: CC(=O)N[C@H](C(=O)N[C@@H](C)C(=O)N[C@@H](CC(=O)O)C(=O)Nc1ccc([N+](=O)[O-])cc1)C(C)C
On the procedure: as §1, §2, §3, §4, §5

Substrate in series [3]: CC(C)[C@H](NC(=O)OC(C)(C)C)C(=O)N[C@@H](C)C(=O)N[C@@H](CC(=O)O)C(=O)Nc1ccc([N+](=O)[O-])cc1
As to the method:
as §1, §2, §3, §4, §5

Substrate in series [4]: CC(C)[C@H](NC(=O)OCc1ccccc1)C(=O)N[C@@H](C)C(=O)N[C@@H](CC(=O)O)C(=O)Nc1ccc([N+](=O)[O-])cc1
On the procedure:
as §1, §2, §3, §4, §5

B1: interleukin 1β converting enzyme (ICE) (Homo sapiens) (protein)
chain 1: NPAMPTSSGSEGNVKLCSLEEAQRIWKQKSAEIYPIMDKSSRTRLALIICNEEFDSIPRRTGAEVDITGMTMLLQNLGYSVDVKKNLTASDMTTELEAFAHRPEHKTSDSTFLVFMSHGIREGICGKKHSEQVPDILQLNAIFNMLNTKNCPSLKDKPKVIIIQACRGDSPGVVWFKD
chain 2: AIKKAHIEKDFIAFCSSTPDNVSWRHPTMGSVFIGRLIEHMQEYACSCDVEEIFRKVRFSFEQPDGRAQMPTTERVTLTRCFYLFPGH
notes: ICE activity was purified from THP-1 cell lysates by three chromatographic steps; endogenous in cells; host or cells: THP-1 (ATCC-TIB 202) human monocyte cell line; Lysate was purified over G25, Q-Sepharose and MonoQ, then captured on protein A agarose beads carrying anti-ICE antibody
Take B1: the Km was determined as 43.8 µM in series [1], 447 µM in series [2], 443 µM in series [3] and 97.9 µM in series [4].

The values are drawn from patent US5498695A, “Paranitroaniline peptides” (Pfizer Inc., priority 1994, dated 1996).
